The values that follow come from article doi:10.1101/2020.09.13.295345 (bioRxiv, 2020).

This data set concerns the molecule itself. In words: native gel or EMSA.

B1: Thermus thermophilus ClpB, full-length (natural protein)
chain: not shown
For B1, the binding result is on record as “binds”.

B2: ΔNClpB, Thermus thermophilus ClpB lacking the N-terminal domain (domain or fragment)
chain: not shown
For the protein B2, the binding result is listed as “binds”.
